# Test results reported in patent publication US9707267B2, “Beta-turn peptidomimetic cyclic compounds for treating dry eye” (Mimetogen Pharmaceuticals, Inc., priority 2008, dated 2017).
# Tests used:
# [1] = test system: scopolamine induced dry eye model; assay: Scopolamine induced dry eye model, tear fluorescein clearance (Example 3); assay type: in vivo, rat; settings: single topical instillation of 1% on day eight; measured day thirteen
# Method: (§1) Dry eye was induced using scopolamine (Sigma-Aldrich, St. Louis, Mo.), which was continuously and systemically delivered to the animals via an osmotic pump (2ML4 Alzet®; CedarLane, Burlington, Ontario) filled with scopolamine and implanted subcutaneously in the mid dorsal area between the scapulae. The wound was closed with 2-3 wound clips. After the surgery and again the next day, the animals were subcutaneously injected with Carprofen (0.5 mg/100 g) a non-steroidal anti-inflammatory drug and potent, long-acting analgesic in rodents. Animals were anaesthetized before the surgical pump implantation and before all clinical endpoint testing in an Isofluorane 99.9% USP (Abraxis Bioscience, Richmond Hill, Ontario) chamber. […]
# Tear fluorescein clearance was evaluated as described for humans (Afonso, A A. et al., “Correlation of Tear Fluorescein Clearance and Schirmer Test Scores with Ocular Irritation Symptoms,” Ophthalmology 106:803-810 (1999), the entire content of which is incorporated herein by reference) and modified for rats (Chen, W. et al., “Keratoconjunctivitis Sicca Modifies Epithelial Stem Cell Proliferation Kinetics in Conjunctiva,” Cornea 26:1101-1106 (2007), the entire content of which is incorporated herein by reference). […] The length of cotton wetting in mm determined the volume of the collected tear fluid. […]
# [2] = test system: scopolamine induced dry eye model; assay: Scopolamine induced dry eye model, Schirmer test (Example 3); assay type: in vivo, rat; settings: single topical instillation of 1% on day eight; measured day thirteen
# Method: as §1
# Tear production was measured with Zone-Quick standardized phenol-red threads (FCI Ophthalmics, Marshfield Hills, Mass.) on animals lightly sedated with Isoflurane. […] The length of the stained moistened portion of the thread was measured in millimeters, using the scale provided with the threads to an accuracy of 1 mm. […]
# [3] = Scopolamine induced rat dry eye model, body weights (Example 5); assay type: in vivo; settings: ± SD
# Method: After the surgery and again the next day, the animals were subcutaneously injected with Caprofen (0.5 mg/100 g) a non-steroidal anti-inflammatory drug and potent, long-acting analgesic in rodents. Animals were weighed prior to pump implantation on Day−1, and then once a week for four weeks. This dosing regimen was reported to induce dry eye in rats (Viau S et al., “Time course of ocular surface and lacrimal gland changes in a new scopolamine-induced dry eye model,” Graefes Arch Clin Exp Ophthalmol., 246:857-867 (2008), the entire content of which is incorporated herein by reference).
# There were no mortalities. […] Conjunctival congestion and conjunctival bloody discharge usually resolved the next day, but conjunctival swelling continued throughout the study. Pre-treatment, mean body weight was approximately 400 g, and was not statistically different among groups (p=0.3927) (Table 10). Mean body weight in the untreated control groups (G1) increased to approximately 575 g throughout the study. In the five groups receiving scopolamine (G2-G6), mean body weight increased to approximately 425 to 450 g. There was a statistically significant effect of treatment to decrease body weight starting on Day 14, continuing through Day 28 (p<0.0001 to 0.0426) (FIG. 24).
# [4] = test system: Conjunctival goblet cells; assay: Conjunctival goblet cell proliferation, WST-8 assay (Example 1); assay type: cell-based, rat; settings: NGF 1 nM (FIG. 4), 24 hours
# Method: Cells derived from the explants were grown in RPMI 1640 supplemented with 10% fetal bovine serum (FBS) and penicillin (100 U/mL)/streptomycin (100 μg/mL) at 37° C. in a humidified 5% CO2-atmosphere for seventy-two hours. Contaminating nongoblet cells were removed by scraping them from the plate. During this time, goblet cells migrated from the pieces and began to proliferate. After one week, the goblet cells were trypsinized and plated in twenty-four well culture plates with RPMI-1640 media supplemented with 10% FBS.
# Conjunctival goblet cells were grown to subconfluence in 24-well culture plates and then serum deprived for twenty-four hours. […] CGC proliferation was determined with a colorimetric nonradioactive, WST-8 proliferation assay that measures the number of cells. This procedure employs the 2-(2-methoxy-4-nitrophenyl)-3-(4-nitrophenyl)-5-(2,4-disulfophenyl)-2H-tetrazolium, monosodium salt (WST-8), which is cleaved by viable, growing mitochondria to form a dark blue formazan product that is detected by a fluorescence ELISA reader (Bio-Tek, Winooski, Vt.) at 460 nm.
# Data for CGC glycoconjugate secretion and proliferation were expressed as the increase (x-fold) above basal value, which was standardized to 1.0. For example, for the 0.3 μM (micromolar), 1 μM and 10 μM doses, the CGC glycoconjugate secretion and proliferation were expressed as test compound over untreated cells. […]
Compound,"aqueous tear turnover, fluorescein clearance (in words) [1]","aqueous tear production, Schirmer test (in words) [2]","Body Weights ([3]; 0.00053% group, Day −1, pre-treatment) [g]","Body Weights ([3]; scopolamine + 0.00053% topical 1× daily Days 5-21, Day 7) [g]","Body Weights ([3]; scopolamine + 0.00053% topical 1× daily Days 5-21, Day 14) [g]","Body Weights ([3]; scopolamine + 0.00053% topical 1× daily Days 5-21, Day 20) [g]","Body Weights ([3]; scopolamine + 0.00053% topical 1× daily Days 5-21, Day 29) [g]",CGC proliferation [4] [fold above basal]
NCCCC[C@@H]1NC(=O)[C@H](CCC(=O)O)NC(=O)c2cc([N+](=O)[O-])ccc2OCCC(C(=O)NCC(=O)O)NC1=O (some centres unmarked) [Compound D3],no effect on aqueous tear turnover,no effect on aqueous tear production,,,,,,
"NGF: nerve growth factor (recombinant human), positive control",,,417 ± 16,396 ± 20,399 ± 18,417 ± 16,438 ± 22,1.6±0.3
